Several values for one entry are separate records, joined by “and”; a condition that tells them apart may be missing. Identical values can stand only once. Values belong to the molecule of their own block, whether it stands above or below them.
Assays:
CDADC1 (NYD-SP15) = molecular target: T1, CDADC1 (NYD-SP15) (Homo sapiens, UniProt Q9BWV3, E400A); test: cryo-EM structure of complex; type: binding; conditions: hexamer, catalytically inactive variant
T1 construct: codon-optimized gene, E. coli BL21-CodonPlus(DE3)-RIL; homotrimer / hexamer (dimer of trimers), hexamer is the active form
T1 sequence (Q9BWV3 1-514 E400A): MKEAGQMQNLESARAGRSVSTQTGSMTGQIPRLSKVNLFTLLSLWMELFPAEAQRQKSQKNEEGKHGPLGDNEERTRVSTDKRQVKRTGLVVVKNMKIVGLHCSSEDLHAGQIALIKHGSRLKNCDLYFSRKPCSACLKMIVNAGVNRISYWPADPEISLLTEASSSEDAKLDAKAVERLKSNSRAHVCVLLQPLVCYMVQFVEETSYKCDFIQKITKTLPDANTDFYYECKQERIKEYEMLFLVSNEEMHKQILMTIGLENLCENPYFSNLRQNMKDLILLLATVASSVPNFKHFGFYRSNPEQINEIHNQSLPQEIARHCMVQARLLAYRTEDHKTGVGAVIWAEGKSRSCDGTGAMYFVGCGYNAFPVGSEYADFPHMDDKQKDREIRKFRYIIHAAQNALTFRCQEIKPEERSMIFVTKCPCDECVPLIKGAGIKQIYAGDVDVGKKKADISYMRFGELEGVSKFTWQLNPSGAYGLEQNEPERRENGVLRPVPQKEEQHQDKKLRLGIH

[1] = substrate: Nc1ccn([C@@H]2O[C@H](COP(=O)(O)OP(=O)(O)OP(=O)(O)O)[C@@H](O)[C@H]2O)c(=O)n1; test: fluorescent ammonia detection, initial velocities, allosteric sigmoidal fit; type: biochemical, Homo sapiens; conditions: Low Salt Reaction Buffer; 0.3 uM CDADC1 (monomer); Hill coefficient 1.6
[2] = substrate: Nc1ccn([C@H]2C[C@H](O)[C@@H](COP(=O)(O)OP(=O)(O)OP(=O)(O)O)O2)c(=O)n1; test: as above; type: biochemical, Homo sapiens; conditions: Low Salt Reaction Buffer; 0.2 uM CDADC1 (monomer); Hill coefficient 1.22
[3] = substrate: Nc1ccn([C@H]2C[C@H](O)[C@@H](COP(=O)(O)O)O2)c(=O)n1; test: as above; type: biochemical, Homo sapiens; conditions: Low Salt Reaction Buffer; 0.3 uM CDADC1 (monomer); Hill coefficient 1.8
[4] = molecular target: the molecule itself; test: cryo-EM structure; single-particle cryo-EM of CDADC1 E400A alone, with dCTP and with 5-methyl-dCTP; C3 (trimer) or D3 (dimer of trimers) symmetry imposed; maps 2.4 to 3.0 A
[5] = molecular target: the molecule itself; test: mass photometry; Refeyn TwoMP; CDADC1 at ~0.06 uM (monomer), room temperature, 10 min, without a ligand or with 1 mM dCTP (dCTP stabilised against dissociation); hexamers dissociated to trimers and monomers over time; hexamer = dimer of trimers

cryo-EM structure of complex (CDADC1 (NYD-SP15); CTD active site, less clear map than dCTP): a hexamer with bound 5mdCTP (PDB: 9HFT)
Molecule: Cc1cn([C@H]2C[C@H](O)[C@@H](COP(=O)(O)OP(=O)(O)OP(=O)(O)O)O2)c(=O)nc1N [5mdCTP]

cryo-EM structure of complex (CDADC1 (NYD-SP15); one dCTP per protomer in CTD active site, N4 coordinates Zn2+): a hexamer with bound dCTP (PDB: 9HFS)
Molecule: Nc1ccn([C@H]2C[C@H](O)[C@@H](COP(=O)(O)OP(=O)(O)OP(=O)(O)O)O2)c(=O)n1 [dCTP]

B1: CDADC1 (NYD-SP15) (Homo sapiens) (protein)
chain: MKEAGQMQNLESARAGRSVSTQTGSMTGQIPRLSKVNLFTLLSLWMELFPAEAQRQKSQKNEEGKHGPLGDNEERTRVSTDKRQVKRTGLVVVKNMKIVGLHCSSEDLHAGQIALIKHGSRLKNCDLYFSRKPCSACLKMIVNAGVNRISYWPADPEISLLTEASSSEDAKLDAKAVERLKSNSRAHVCVLLQPLVCYMVQFVEETSYKCDFIQKITKTLPDANTDFYYECKQERIKEYEMLFLVSNEEMHKQILMTIGLENLCENPYFSNLRQNMKDLILLLATVASSVPNFKHFGFYRSNPEQINEIHNQSLPQEIARHCMVQARLLAYRTEDHKTGVGAVIWAEGKSRSCDGTGAMYFVGCGYNAFPVGSEYADFPHMDDKQKDREIRKFRYIIHAEQNALTFRCQEIKPEERSMIFVTKCPCDECVPLIKGAGIKQIYAGDVDVGKKKADISYMRFGELEGVSKFTWQLNPSGAYGLEQNEPERRENGVLRPVPQKEEQHQDKKLRLGIH
notes: codon-optimized gene, E. coli BL21-CodonPlus(DE3)-RIL; homotrimer / hexamer (dimer of trimers), hexamer is the active form
K0.5 [1]: 0.7 mM
kcat [1]: 5.0 s⁻¹
K0.5 [2]: 0.2 mM
kcat [2]: 3.5 s⁻¹
K0.5 [3]: 5 mM
kcat [3]: 8.5 s⁻¹

B2: human CDADC1 E400A variant (enzyme, UniProt Q9BWV3 1-514, looked up)
chain: MKEAGQMQNLESARAGRSVSTQTGSMTGQIPRLSKVNLFTLLSLWMELFPAEAQRQKSQKNEEGKHGPLGDNEERTRVSTDKRQVKRTGLVVVKNMKIVGLHCSSEDLHAGQIALIKHGSRLKNCDLYFSRKPCSACLKMIVNAGVNRISYWPADPEISLLTEASSSEDAKLDAKAVERLKSNSRAHVCVLLQPLVCYMVQFVEETSYKCDFIQKITKTLPDANTDFYYECKQERIKEYEMLFLVSNEEMHKQILMTIGLENLCENPYFSNLRQNMKDLILLLATVASSVPNFKHFGFYRSNPEQINEIHNQSLPQEIARHCMVQARLLAYRTEDHKTGVGAVIWAEGKSRSCDGTGAMYFVGCGYNAFPVGSEYADFPHMDDKQKDREIRKFRYIIHAAQNALTFRCQEIKPEERSMIFVTKCPCDECVPLIKGAGIKQIYAGDVDVGKKKADISYMRFGELEGVSKFTWQLNPSGAYGLEQNEPERRENGVLRPVPQKEEQHQDKKLRLGIH
notes: CDADC1 (NYD-SP15), human, 514 residues, catalytic glutamate E400 changed to alanine; expressed from a codon-optimized gene; This variant was used for all cryo-EM datasets; source: E. coli BL21-CodonPlus (DE3)-RIL, purified (His-trap, Heparin HP, Superdex 200 Increase)
stoichiometry N [4]: 3 and 6

B3: human CDADC1 (enzyme, UniProt Q9BWV3 1-514, looked up)
chain: MKEAGQMQNLESARAGRSVSTQTGSMTGQIPRLSKVNLFTLLSLWMELFPAEAQRQKSQKNEEGKHGPLGDNEERTRVSTDKRQVKRTGLVVVKNMKIVGLHCSSEDLHAGQIALIKHGSRLKNCDLYFSRKPCSACLKMIVNAGVNRISYWPADPEISLLTEASSSEDAKLDAKAVERLKSNSRAHVCVLLQPLVCYMVQFVEETSYKCDFIQKITKTLPDANTDFYYECKQERIKEYEMLFLVSNEEMHKQILMTIGLENLCENPYFSNLRQNMKDLILLLATVASSVPNFKHFGFYRSNPEQINEIHNQSLPQEIARHCMVQARLLAYRTEDHKTGVGAVIWAEGKSRSCDGTGAMYFVGCGYNAFPVGSEYADFPHMDDKQKDREIRKFRYIIHAEQNALTFRCQEIKPEERSMIFVTKCPCDECVPLIKGAGIKQIYAGDVDVGKKKADISYMRFGELEGVSKFTWQLNPSGAYGLEQNEPERRENGVLRPVPQKEEQHQDKKLRLGIH
notes: CDADC1 (NYD-SP15), human, 514 residues, expressed from a codon-optimized gene; Complete methods are in the SI Appendix; also called NYD-SP15; source: E. coli BL21-CodonPlus (DE3)-RIL, purified (His-trap, Heparin HP, Superdex 200 Increase)
stoichiometry N [5]: 3 and 6

Source: paper PMC12088426, “Activity and structure of human (d)CTP deaminase CDADC1” (Proceedings of the National Academy of Sciences of the …, 2025)
